Reference: the nanobody polyreactivity screen of Harvey et al. (2022)

Assay: yeast display, Sf9 membrane polyspecificity reagent, FACS + sequencing; frameworks hold sequencing errors
Summary of the method: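 In a synthetic yeast display library (Saccharomyces cerevisiae BJ5465), nanobody expression was induced with galactose for 36–48 hours. FACS gates were set low and high (top ~1%) using anti-HA fluorescence for expression and streptavidin fluorescence for binding of the Sf9 membrane reagent. Each polyreactivity label is drawn from the gate of origin.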

Sequence	polyreactivity (PSR sort gate)
QVQLVESGGVLVQAGGSLRFSCAASGIIFDQYAMGWYRQAPGKEREFVAVITRSGGSTYYADSVKGRFTISRDNAKKTVYLQMNSLKPEDTAVYYCAAPRLLGKRRRTNDYWGQGTQVTVSS	high polyreactivity
QVQLVESGGVLVQAGGSLRLICAASGSIFGWNTKGWYRQSAGKERELVAGITRGGSTYYADSVKGRFTISRDNAKNTVYLQMNRQKPEDTAVYYCAALVYRAWEFEFWGQGTQVTVSS	high polyreactivity
QVQLVESGGVLVQAGGSLRLRCAASGRIFNRNAMGWYRQAPGKERELVAAITSCGSTNYADSVKGRFTISRDNAKNTVYLQMNSLKPEDTAVYYCNVYYHFFRLKTTYLRYYYWGQGTQVTVSS	high polyreactivity
QVQLVESGGVLVQAGGSLRLRCAASGRIFSRYTMGWYRQAPGKERELVAAIRNTGSTNYADSVKGRFTISRDNAKNTVYLQMNSLKPEDTAVYYCNARTAYGAYHYYYPQRMDYWGQGTQVTVSS	high polyreactivity
QVQLVESGGVLVQAGGSLRLSCAASGFTFNYYVMGWYRQAPWKERELVATITSVGSTYYADSVKGRFTISRDNAKNTVYLQMNSLKPEDTAVYYCNADWYWRVYWGQGTQVTVSS	high polyreactivity
QVQLVESGGVLVQAGGSLRLSCAASGFTFTPNAMGWYTQAPGKERELVAAIDWNGGSTYYADAVKGRFTISRDNAKNTVYLQMNSLKPEDTAVYYCAADDEEWKVITDYDYWGQGTQVTVSS	low polyreactivity
QVQLVESGGVLVQAGGSLRLSCAASGGIFNQYAMGWYRQAPGKERELVAAISSSGSSTYYADSVKGRFTISRDNAKNTVYLLMNSLKPEDTAVYYCNTYYSYQRVGYWGQGTQVTVSS	high polyreactivity
QVQLVESGGVLVQAGGSLRLSCAASGLNLAPNAMGWYRQAPGKEMELVAAITRSGGDTYYADSVKGRFTISRENAKNTVYLQMNSLKPEDTAVYYCAKARPGFLYDHWGQGTQVTVSS	high polyreactivity
QVQLVESGGVLVQAGGSLRLSCAASGLTFSWYAMGWYRQAPGKERELVASINYSGANTYYADSVKGRFTISRDNAQNTVFLQMNSLKPEDTAVYYCNSRLRRYQNERVTYDYWGQGTQVTVSS	high polyreactivity
QVQLVESGGVLVQAGGSLRLSCAASGRIFRSYALGWYRQAPGKETEFVAAISSGGSTNYADSVKGRFTISRDNAKNTVYLQMNSLKREDTAVYYCAADLWAYTWYWHSDYWGQGTQVTVSS	low polyreactivity
QVQLVESGGVLVQAGGSLRLSCAASGRTFNAYTMGWYRQAPGKERELVAAITSSGGNTYYADSVKGRFTITRDNGKNTVFLQMNSLKPEDTAVYYCNTVYLYGTHDYWGQGTQLTVSS	low polyreactivity
QVQLVESGGVLVQAGGSLRLSCAASGRTFRYYGMGWYRQAPGKERVVAAITWSGDTTYYADSVKGRFTISRDNAKNTVYLQMNSLKPEDTAVYYCAAQSWHRYYYWGQGTQVTVSS	high polyreactivity
QVQLVESGGVLVQAGGSLRLSCAASGRTFSPYAMGWARQAPGKDRELVAAITSRGASTYYADSVKGRFTISRDNAKNTVYLQMNSLKPEDTAVYYCNSGRTYRRLGDYWGQGTQVTVSS	high polyreactivity
QVQLVESGGVLVQAGGSLRLSCAASGRTFYYYAMGWYRQAPGKERELVASISWDGGNTYYADSVKGRFTISRDTAKNTVYLHMNSLKPEDTAVYYCNRRFYHKDDYWGQGTQVTVSS	high polyreactivity
QVQLVESGGVLVQAGGSLRLSCAASGRTLRSYAMGWYRHAPGKERELVAAISRSGGSTYYADSVKGRFTISRDNAKNTVYLQMNSLKPEDTAVYYCATRYLGRLDYWGQGTQVTVSS	high polyreactivity
QVQLVESGGVLVQAGGSLRLSCAASGRTMDPYTMGGYRQAHGKERELVAAITSSGGRTTYADSVKGRFTISRDNAKNYVYLQMNSLKPEDTAVYYCAKKFRPGYRSQYLRYSWGQGTQVTVSS	low polyreactivity

Sequence	polyreactivity (PSR sort gate)
QVQLVESGGVLVQAGGSLRLSCAASGSIFGSYGMGWYRQAPGKERELVAAIRVSGGSTYYADSVKGRFTISRDNAKNTVYLQMNSLKPEDTAVYYCAARARSTPRKYYYTRGYWGQGTQVTVSS	high polyreactivity
QVQLVESGGVLVQAGGSLRLSCAASGSIFGSYTMGWYRQAPGKEREMVAAISGGGASTYYADSVKGRFTISRDNAKNTVYLQMNSLKPEDTAVYYCYKRGVIERRKPWHYSTFDYWGQGTQVTVSS	low polyreactivity
QVQLVESGGVLVQAGGSLRLSCAASGSISYSYAMGWYRQAPGKERELVAAITWGGDSTYYADSVKGRFTISRDNAKNTVYLQMNSLKPEDTAVYYCAADLRFTYPVYRAGGGYDYWGQGTQVTVSS	low polyreactivity
QVQLVESGGVLVQAGGSLRLSCAASGSTFKPYAMGWYRQAPGKEREFVAANSRGTRTYADSVKGRFTISRDNAKNTVSLPMNSLKPEDTAVYYCAAEWSWIFGYHYEYDYGGQGTQVTVSS	low polyreactivity
QVQLVESGGVLVQAGGSLRLSCAASGSTFSRYAMGWYRQAPGKETELVAAINWSGGRTYYADSVKGRFTISRDNAKNTVYLQMNSLIAADTAVYFCAADGRRYSGEYYYWGQGTQVTVSS	high polyreactivity
QVQLVESGGVLVQAGGSLRLSCAASGSTFTDYAMGWYRQAPGKERELVAAITDSGGRTYYADSVKGRFTISRDNAKNTVYLQMNSLKPEDTAVYYCATEDDRWYYWGQGTQVTVSS	high polyreactivity
QVQLVESGGVLVQAGGSLRLSCAASGSTFYYYAMGWYRKAPGKERELVAAISSSGGTTYYADSVKGRFTISRDNAKNTVYLQMNSLKPEDTAVYYCAKYPWYWDEGNSWGQGTQVTVSS	low polyreactivity
QVQLVESGGVLVQAGGSLRLSCAASGSTLGGNAMGWYRQAPGKEMELVAAITSSAGSTYYADSVKGRFTISRDNAKNTVYLQMNSLKPEDTAVYYCDADYSRDEYDYWGQGTQVTVSS	low polyreactivity
QVQLVESGGVLVQAGGSLRLSCAASGYIFGNYAMGWYRQAPGNERELVASIDSGGSTNYADSVKGRFTISRDNAKNTVYLQKNSLKPEDTAVYYWAARPTWNRGRSRKYWRYNYWAQGTQVTVSS	high polyreactivity
QVQLVESGGVLVQAGGSLRLSCAASGYIFYPYAMGWYRQAPGKERELVAAISGSGSGTYYADSVKGRFTISRDNAKNTVYLQMNSLKPEDTAVYYCAKYLYDNVWMDYWGQGTQVTVSS	low polyreactivity
QVQLVESGGVLVQAGGSLRLSCAAYGFIFDYYAMGWYRQAPGKERELVAAITSRGGSTYYADSVKGRFTISRDNAKNTVYLQMNSLKPEDSAVYYCAARRRSAEYNYWGQGTQVTVSS	high polyreactivity
QVQLVESGGVLVQAGGSLRLSCAAYGSTLRRYAMGWYRQAPGKERELVAAISYSGGSTYYADSVKGRFTISRDNAKNTVYLQMNSLKPEDTAVYYCAVVTRKGLYDYWGQGTQVTVSS	high polyreactivity
QVQLVESGGVLVQAGGSLRLSCAPSGFTFYRYAMGWYRQAPGKESELVAAISYSGGRTYYADSVKGRFTISCDIAKNTVYLQMNSLKPEDTAVYYCNARASYGHQGRLGYARLYYWGQGTQVTVSS	high polyreactivity
QVQLVESGGVLVQAGGSLRLSCAPSGYIYSKYAMGWYRQAPGKERELVASITGRGSRTYYADSVKGRFTISRDNAKNTVYLQMNSLKPEDIAVYFCAADWYGQKTSNRWYFRPGYDYWGQGTQVTVSS	high polyreactivity
QVQLVESGGVLVQEGGSLRLSCAASGRIFQIYAMGWYRQAPGKERELFAAISGSTSYADSVKGRFTISRDNAKNTVYLQMNSLKPEDTAVYYCAKRVVRGKVDYWGQGTQVTVSS	low polyreactivity
QVQLVESGGVLVQEGGSLRLSCADSGRIFYSNAMGWYRQAPGKERELVAAISYSGGRTYYADSVKGRFTISRDNAKNTVYLQMNSLIPEDTAVYYCAARYAWGYVDPGDYWGQGTQVTVSS	high polyreactivity
